± gives the uncertainty stated by the source.
Test: self-splicing fitness, log relative to wild type (ln ratio); higher = more splicing; Tetrahymena group I intron in knt gene, E. coli kanamycin selection, DiMSum; sequences stand for … in CUCUCU…GGAGGGAAAAGUUAUCAGGCAUGCACCUGGUAGCUAGUCUUUAAACCAAUAGAUUGCAUCGGUUUAAAAGGCAAGACCGUCAAAUUGCGGGAAAGGGGUCAACAGCCGUUCAGUACCAAGUCUCAGGGGAAACUUUGAGAUGGCCUUGCAAAGGGUAUGGUAAUAAGCUGACGGACAUGGUCCUAACCACGCAGCCAAGUCCUAAGUCAACAGAUCUUCUGUUGAUAUGGAUGCAGUUCACAGACUAAAUGUCGGUCGGGGAAGAUGUAUUCUUCUCAUAAGAUAUAGUCGGACCUCUCCUUAAUGGGAGCUAGCGGAUGAAGUGAUGCAACACUGGAGCCGCUGGGAACUAAUUUGUAUGCGAAAGUAUAUUGAUUAGUUUUGGAGUACUCGUGGUCG
Procedure, shortened: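 Fitness was computed with DiMSum as the error-weighted combination of replicate fold changes, kanamycin versus none, each normalised to wild type. The library randomised all eight intron nucleotides of the P1ex region, with the intron placed in the knt kanamycin-resistance gene on pET-22b(+) in E. coli BL21(DE3). Six replicate transformations were grown overnight at 37°C or 30°C on LB agar with or without 25 μg/mL kanamycin, plus 100 μg/mL carbenicillin, 50 μM IPTG and 0.2% rhamnose. Pooled colonies were amplicon-sequenced on an Illumina HiSeq 2500.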

Sequence	self-splicing fitness (ln) (30 °C)	self-splicing fitness (ln) (37 °C)
CCCCAGCAAUAUUACGACGU	-3.45 ± 0.21	-2.9 ± 0.19
CCCCAGCAAUAUUACGAUAC	-3.82 ± 0.27	-2.85 ± 0.28
CCCCAGCAAUAUUACGAUUU	-3.43 ± 0.14	-3.51 ± 0.25
CCCCAGCAAUAUUACGCAGG	-3.34 ± 0.12	-2.52 ± 0.16
CCCCAGCAAUAUUACGCCGA	–	-2.04 ± 0.25
CCCCAGCAAUAUUACGCGAC	-3.37 ± 0.21	-2.49 ± 0.25
CCCCAGCAAUAUUACGCUGC	-3.41 ± 0.17	-2.06 ± 0.23
CCCCAGCAAUAUUACGCUUC	-4.6 ± 0.32	-2.39 ± 0.27
CCCCAGCAAUAUUACGGAAC	-3.83 ± 0.26	-3.1 ± 0.22
CCCCAGCAAUAUUACGGCUA	-3.77 ± 0.16	-2.34 ± 0.13
CCCCAGCAAUAUUACGGGAC	-3.88 ± 0.18	-2.12 ± 0.14
CCCCAGCAAUAUUACGGGCC	-3.27 ± 0.15	-1.7 ± 0.15
CCCCAGCAAUAUUACGGGUA	-2.89 ± 0.11	-1.25 ± 0.073
CCCCAGCAAUAUUACGGGUU	-3.63 ± 0.11	-1.85 ± 0.092
CCCCAGCAAUAUUACGGUCG	-2.24 ± 0.068	-1.2 ± 0.078
CCCCAGCAAUAUUACGGUCU	-3.81 ± 0.13	-2.73 ± 0.17
CCCCAGCAAUAUUACGUAUA	-4.57 ± 0.34	-3.21 ± 0.28
CCCCAGCAAUAUUACGUAUC	-3.88 ± 0.21	-3.84 ± 0.21
CCCCAGCAAUAUUACGUCAA	-3.29 ± 0.12	-3 ± 0.16
CCCCAGCAAUAUUACGUCCU	-2.36 ± 0.17	-2.14 ± 0.22
CCCCAGCAAUAUUACGUCUU	-3.9 ± 0.12	-2.04 ± 0.12
CCCCAGCAAUAUUACGUUAA	-3.33 ± 0.14	-2.76 ± 0.13
CCCCAGCAAUAUUACGUUAU	-4.15 ± 0.15	-3.29 ± 0.22
CCCCAGCAAUAUUACGUUUG	-4.17 ± 0.15	-2.51 ± 0.12

Sequence	self-splicing fitness (ln) (30 °C)	self-splicing fitness (ln) (37 °C)
CCCGAGCAAUAUUACGAAAA	-2.67 ± 0.46	-1.74 ± 0.42
CCCGAGCAAUAUUACGACAA	-2.78 ± 0.3	-2.85 ± 0.41
CCCGAGCAAUAUUACGACUU	-3.24 ± 0.26	-3.01 ± 0.25
CCCGAGCAAUAUUACGCAAU	-3.57 ± 0.25	-2.94 ± 0.29
CCCGAGCAAUAUUACGCCAG	-2.69 ± 0.38	–
CCCGAGCAAUAUUACGCGCC	–	-1.22 ± 0.35
CCCGAGCAAUAUUACGCUUU	–	-1.35 ± 0.19
CCCGAGCAAUAUUACGGACA	-2.72 ± 0.16	-1.19 ± 0.12
CCCGAGCAAUAUUACGGUAA	-3.81 ± 0.26	-1.46 ± 0.16
CCCGAGCAAUAUUACGUAAU	-4.75 ± 0.45	-2.63 ± 0.32
CCCGAGCAAUAUUACGUACA	-2.87 ± 0.19	-2.25 ± 0.24
CCCGAGCAAUAUUACGUCCG	-2.11 ± 0.4	-1.98 ± 0.36
CCCGAGCAAUAUUACGUCGU	-2.45 ± 0.12	-3.06 ± 0.24
CCCGAGCAAUAUUACGUUCA	-3 ± 0.16	-2.99 ± 0.22
CCCUAGCAAUAUUACGACAG	-2.34 ± 0.13	-3.3 ± 0.29
CCCUAGCAAUAUUACGACCA	-3.35 ± 0.24	-3.33 ± 0.27
CCCUAGCAAUAUUACGAGUU	-2.39 ± 0.14	-3.11 ± 0.2
CCCUAGCAAUAUUACGAUCG	-3.91 ± 0.35	-1.47 ± 0.18
CCCUAGCAAUAUUACGGACA	-2.94 ± 0.32	-2.62 ± 0.24
CCCUAGCAAUAUUACGGGCC	-3.25 ± 0.19	-1.74 ± 0.27
CCCUAGCAAUAUUACGGGCU	-4.04 ± 0.25	-2.71 ± 0.18
CCCUAGCAAUAUUACGGUCG	-2.02 ± 0.068	-0.697 ± 0.092
CCCUAGCAAUAUUACGUCAG	-3.8 ± 0.18	-2.91 ± 0.18
CCCUAGCAAUAUUACGUCGU	-3.42 ± 0.2	-1.43 ± 0.19

— the supplement of paper PMC7877785
